For assay [1], the target named is T1, human CD19 on CHO-K1-human CD19 cells (human, UniProt P15391 20-556).
T1 construct: whole, on cells; also called CHO-K1-human CD19-2C8
T1 sequence (looked up): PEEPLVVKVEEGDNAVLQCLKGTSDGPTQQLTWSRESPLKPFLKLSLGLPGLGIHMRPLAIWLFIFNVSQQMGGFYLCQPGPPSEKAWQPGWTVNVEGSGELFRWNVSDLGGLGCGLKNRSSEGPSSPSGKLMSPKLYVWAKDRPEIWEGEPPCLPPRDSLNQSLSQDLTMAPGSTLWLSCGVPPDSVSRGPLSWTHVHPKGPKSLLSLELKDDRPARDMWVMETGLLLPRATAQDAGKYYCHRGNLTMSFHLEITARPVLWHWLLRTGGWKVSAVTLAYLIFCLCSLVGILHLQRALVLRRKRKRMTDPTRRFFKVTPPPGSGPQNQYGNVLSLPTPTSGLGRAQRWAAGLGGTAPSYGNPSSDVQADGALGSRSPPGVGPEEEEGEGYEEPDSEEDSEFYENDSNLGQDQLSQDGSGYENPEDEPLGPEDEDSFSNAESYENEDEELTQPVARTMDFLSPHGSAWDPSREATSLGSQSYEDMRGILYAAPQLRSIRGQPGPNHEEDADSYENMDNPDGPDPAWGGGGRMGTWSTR
The experiment in a line: FACS on CHO-K1-human CD19 cells.

The target of assay [2] is T2, cynomolgus monkey CD19 on peripheral blood B cells (cynomolgus monkey (Macaca fascicularis), UniProt A0A2K5W8L9 20-557).
T2 construct: whole, on cells; also called cynomolgus monkey B cells
T2 sequence: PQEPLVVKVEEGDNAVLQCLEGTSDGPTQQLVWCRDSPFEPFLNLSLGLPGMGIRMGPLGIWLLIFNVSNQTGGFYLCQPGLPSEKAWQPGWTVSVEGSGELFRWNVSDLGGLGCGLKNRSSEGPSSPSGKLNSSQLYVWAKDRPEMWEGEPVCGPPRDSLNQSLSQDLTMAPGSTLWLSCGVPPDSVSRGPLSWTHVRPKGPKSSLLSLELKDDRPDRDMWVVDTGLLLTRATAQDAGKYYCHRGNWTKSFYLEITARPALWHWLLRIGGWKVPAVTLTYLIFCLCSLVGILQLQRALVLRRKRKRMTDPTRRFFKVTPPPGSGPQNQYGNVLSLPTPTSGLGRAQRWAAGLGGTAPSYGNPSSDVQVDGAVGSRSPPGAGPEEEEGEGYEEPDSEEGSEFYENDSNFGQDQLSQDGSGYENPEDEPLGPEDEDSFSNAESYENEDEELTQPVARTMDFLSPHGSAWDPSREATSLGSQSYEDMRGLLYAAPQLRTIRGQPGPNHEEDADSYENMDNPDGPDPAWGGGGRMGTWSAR
Description: FACS, cynomolgus PBMC, CD20+ B cells. (Flow cytometry measures light scatter and fluorescence of single cells or particles in a stream.)

Assay [3] deals with T3, human CD19 on Raji cells (human, UniProt P15391 20-556).
T3 construct: whole, on cells
T3 sequence (looked up): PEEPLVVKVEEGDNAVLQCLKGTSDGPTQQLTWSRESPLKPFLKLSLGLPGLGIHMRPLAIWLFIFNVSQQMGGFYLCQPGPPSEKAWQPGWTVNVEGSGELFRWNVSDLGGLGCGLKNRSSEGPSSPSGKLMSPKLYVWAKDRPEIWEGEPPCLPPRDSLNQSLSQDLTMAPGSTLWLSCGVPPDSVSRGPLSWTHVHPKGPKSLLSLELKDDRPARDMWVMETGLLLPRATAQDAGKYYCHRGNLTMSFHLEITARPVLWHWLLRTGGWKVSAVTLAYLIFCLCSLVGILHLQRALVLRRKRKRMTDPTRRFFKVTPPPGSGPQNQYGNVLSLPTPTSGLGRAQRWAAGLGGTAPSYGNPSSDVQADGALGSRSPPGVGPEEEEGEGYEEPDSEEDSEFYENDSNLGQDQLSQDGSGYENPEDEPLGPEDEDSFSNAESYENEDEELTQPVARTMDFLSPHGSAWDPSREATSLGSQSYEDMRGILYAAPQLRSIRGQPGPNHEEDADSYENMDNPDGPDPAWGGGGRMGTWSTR
Description: FACS on Raji cells.

The target in assay [4] is T4, monkey CD19 on HEK293T-monkey CD19 cells (monkey).
T4 construct: whole, on cells
Description: FACS on HEK293T-monkey CD19 cells. The essentials: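 Antibody binding was read as MFI by flow cytometry and EC50 was taken from curve fitting. Before that, cells at 2×10⁶ cells/ml in PBS with 2% (w/w) BSA were exposed to samples for 2 h on ice and washed. Parental HEK293T cells were tested the same way.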

B1: F3.114.12 (antibody, human IgG1, V domains shown)
VH: DVQLQESGPGLVKPSQSLSLTCSVTGYSITSGYDWNWIRQFPGNKLEWMGYISYDGKNNYNPSLRNRISITRDTSKNQFFLKLNSVTTEDTATYYCARRDLRGYFDVWGTGTTVTVSS
VL: DIVLTQSPATLSVTPGDRVSLSCRASQSISNYLHWYQQKSHESPRLLIKYASLSISGIPSRFSGSGSGTDFTLSINSVETEDFGVYFCQQSNSWPLTFGAGTKLELK
notes: human-murine chimeric antibody, human IgG1
Consider B1, for which, in assay [1], the EC50 (commonly the concentration at which the effect is half-maximal) is 2.32 nM and the “Maximum mean fluorescence intensity” value came to 50400. Further, in assay [2], the “Proportion of chimeric antibody positive cells to B cells (%) at 1 nM” value (from here on “Proportion … (%) at 1 nM”) turned out to be 40%, the “Proportion of chimeric antibody positive cells to B cells (%) at 10 nM” value (“Proportion … (%) at 10 nM” for short) worked out at 90% and the “Proportion of chimeric antibody positive cells to B cells (%) at 100 nM” value (from here on “Proportion … (%) at 100 nM”) amounted to 99%. For the same molecule, in assay [3], a half-maximal response (EC50) required 3.34 nM and the “Maximum mean fluorescence intensity” value was 28700. Moreover, in assay [4], a half-maximal response (EC50) required 1.56 nM and the “Maximum mean fluorescence intensity” value was found to be 210000.

B2: F3.121.4 (antibody, human IgG1, V domains shown)
VH: QVQLQQPGAELVVPGTSVKLSCKASGYTFTNYWMHWVKQRPGQGLEWIGEIDPSDNYANYNQEFQGKATLTVDKSSSTAYMQLSSLTSDDSAVYYCARHDGYFGALDYWGQGTSVTVSS
VL: EIVLTQSPTTMAASPGEKITITCSASSSISSNYLHWYQQKPGFSPKFLIYRTSNLASGVPARFSGSGSGTSYSLTIGTMEAEDVATYYCQQASSIPRMFTFGSGTKLEIK
notes: as for B1
For B2, in assay [1], a half-maximal response (EC50) required 0.3 nM and the “Maximum mean fluorescence intensity” value stood at 53700. In assay [2], the “Proportion … (%) at 1 nM” value is 1%, the “Proportion … (%) at 10 nM” value amounted to 2% and the “Proportion … (%) at 100 nM” value came out at 2%. Also, in assay [3], the half-maximal effective concentration (EC50) worked out at 0.31 nM and the “Maximum mean fluorescence intensity” value was determined as 32900. In addition, the “Maximum mean fluorescence intensity” value in assay [4] was 80.

B3: F3.133.14 (antibody, human IgG1, V domains shown)
VH: QVQLQQPGAELVMPGASVKLSCKASGYTFTNYWMHWVKQRPGQGLEWIGEIDPSDYYANYNQKFKGKATLTVDKSSSTAYMQLSSLTSEDSAVYYCARSHYYANSYNYWGQGTTLTVSS
VL: EIELTQSPTTMAASPGEKITITCSASSSISSDYLHWYQQKPGFSPKLLIYRTSNLASGLPARFSGSGSGTSYSLTIGTMEAEDVATYYCQQGSSVPRMLTFGAGTKLELK
notes: as for B1
As to B3, in assay [1], the 50% effective concentration (EC50) was 0.82 nM and the “Maximum mean fluorescence intensity” value worked out at 63100. In addition, in assay [2], the “Proportion … (%) at 1 nM” value was found to be 1%, the “Proportion … (%) at 10 nM” value stood at 1% and the “Proportion … (%) at 100 nM” value was determined as 7%. Besides, in assay [3], the EC50 is 0.93 nM and the “Maximum mean fluorescence intensity” value was 34400. For the same molecule, in assay [4], the EC50 amounted to 2.47 nM and the “Maximum mean fluorescence intensity” value is 138000.

B4: F3.126.15 (antibody, human IgG1, V domains shown)
VH: QVQLQQPGAELVMPGASVKLSCKASGYTFTSYWMHWVKQRPGQGLEWIGEIDPSDSYTTYNQNFKGKATLTVDISTSTAYIQLSNLTSEDSAVYYCARLTGNYIHYWGQGTTLTVSS
VL: DIVMTQSHKFMSTSVGDRVSITCKASQDVSPAVAWYQQRPGQCPKLLIFSSSYRSTGVPDRFTGSGSGTDFTFTISSVQAEDLAVYYCQQHYSLPLTFGAGTKLELK
notes: as for B1
With B4, in assay [1], the concentration for a half-maximal effect (EC50) came out at 2.47 nM and the “Maximum mean fluorescence intensity” value amounted to 56700. For the same molecule, in assay [2], the “Proportion … (%) at 1 nM” value came out at 16%, the “Proportion … (%) at 10 nM” value was determined as 27% and the “Proportion … (%) at 100 nM” value came to 49%. Moreover, in assay [3], it took 1.18 nM to reach a half-maximal effect (EC50) and the “Maximum mean fluorescence intensity” value turned out to be 30300. Moreover, in assay [4], the midpoint of the response, the EC50, lay at 5.57 nM and the “Maximum mean fluorescence intensity” value was 175000.

The record behind these values is patent US20250042994A1 (HAINAN SIMCERE ZAIMING PHARMACEUTICAL, published 2025).
